Test results published in patent CN115806612A (SHENZHEN KANGTI BIOMEDICAL TECH CO LTD, dated 2023).

Molecular target: APP蛋白 (amyloid precursor protein, APP)
Assay: SPR

APP蛋白 (amyloid precursor protein, APP), sequence (chain, as listed by the source): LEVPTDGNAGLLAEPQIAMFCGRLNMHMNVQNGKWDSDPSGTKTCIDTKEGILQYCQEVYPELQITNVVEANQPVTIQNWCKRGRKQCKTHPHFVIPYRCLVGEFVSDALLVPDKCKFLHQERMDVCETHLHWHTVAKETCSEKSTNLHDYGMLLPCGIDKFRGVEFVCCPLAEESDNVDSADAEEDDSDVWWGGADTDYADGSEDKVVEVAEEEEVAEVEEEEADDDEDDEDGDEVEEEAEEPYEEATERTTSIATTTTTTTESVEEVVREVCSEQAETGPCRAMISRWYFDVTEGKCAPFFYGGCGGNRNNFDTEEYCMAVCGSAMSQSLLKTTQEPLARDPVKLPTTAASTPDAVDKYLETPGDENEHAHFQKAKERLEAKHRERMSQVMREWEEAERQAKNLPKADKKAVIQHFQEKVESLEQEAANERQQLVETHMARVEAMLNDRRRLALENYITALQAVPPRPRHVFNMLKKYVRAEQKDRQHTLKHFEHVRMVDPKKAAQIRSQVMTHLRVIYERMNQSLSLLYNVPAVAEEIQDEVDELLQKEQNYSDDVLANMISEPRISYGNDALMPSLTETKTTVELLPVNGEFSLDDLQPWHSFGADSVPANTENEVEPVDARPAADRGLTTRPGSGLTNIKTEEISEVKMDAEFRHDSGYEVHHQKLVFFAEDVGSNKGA

Kd: 70 nM | koff: 0.00921 s⁻¹ | kon: 130000 M⁻¹ s⁻¹
B1: 纳米抗体P2-10C (anti-APP nanobody P2-10C) (VHH)
VHH: DVQLQESGGGLVQPGGSLRLSCAASGIIFSGYYMSWVRQAPGKGPEWVSSINPSGSSTRYADSVKGRFTISRDNAKNTVYLQMYSLKPEDTALYYCSRSRDGLGDVRGQGTQVTVSS
notes: Monovalent alpaca VHH expressed from pET22b in E. coli BL21 and purified on Ni resin and by size exclusion; also called 抗APP的纳米抗体; 抗APP单域重链抗体
